Assay results from patent US20230034768A1 (BIOSION, published 2023).

T1: human RANKL-his protein (prepared in-house with SEQ ID NO: 43) (human, UniProt O14788 136-317)
T1 construct: also called recombinant human RANKL-his
T1 chain: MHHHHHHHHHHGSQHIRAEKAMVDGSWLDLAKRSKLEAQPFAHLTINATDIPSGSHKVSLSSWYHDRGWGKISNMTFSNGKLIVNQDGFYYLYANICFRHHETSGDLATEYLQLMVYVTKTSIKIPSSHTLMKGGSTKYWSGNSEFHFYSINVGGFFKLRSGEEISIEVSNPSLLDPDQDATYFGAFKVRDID

B1: Chimeric D1E3 (antibody, human IgG2, kappa, V domains shown)
VH: EVQLVESGGGLVKPGGSLKLSCAASGFTFSRYAMSWVRQTPEKRLEWVAGISSGGTYTYYPDTVKGRFTISRDSAKNILYLQMGSLRSEDSAMYHCARRDYGDVYEWYFDVWGTGTTVTVSS
VL: DIVMTQSHKFMSASVGDRVSITCKASQGVRIAVAWYQQKPGQSPKLLIYSASYRYTGVPDRFTGSGSGTDFTFTISSVQAEDLAVYYCQQHHSSPWTFGGGTKLEIKR
notes: Mouse variable regions on human IgG2 / kappa; also called chimeric antibody D1E3
B2: Chimeric B1A8 (antibody, human IgG2, kappa, V domains shown)
VH: EVQLVESGGDLVKPGGSLKLSCAASGFTFSRYGMSWVRQTPDKRLEWVASISSGGTYTSYPDSVQGRFTITRDSAKNTLYLQMSSLKSEDTAMYYCARRNFITSATDCYFDVWGAGTTVTVSS
VL: DTVLTQSPATLSVTPGASVSLSCRASQSISNNLHWYQQKSHESPRLLIIYASQSISGIPSRFSGSGSGTDFTLSINSVETEDFGVYFCQQSNSWPFTFGGGTKLEIKR
notes: Mouse variable regions on human IgG2 / kappa; also called chimeric antibody B1A8
B3: Chimeric B3D8 (antibody, human IgG2, kappa, V domains shown)
VH: EVQLVESGGDLVKSGGSLKLSCAASGFTFSRYGMSWVRQTPDKRLEWVASISSGGTYTSYPDSVKGRFTITRDSAKNTLYLQMSSLKSEDTAMYYCARRNFITSATDCYFDVWGAGTTVTVSS
VL: DTVLTQSPATLSVTPGASVSLSCRASQSISNNLHWYQQKSHESPRLLIIYASQSISGIPSRFSGSGSGTDFTLSINSVETEDFGVYFCQQSNSWPFTFGGGTKLEIKR
notes: Mouse variable regions on human IgG2 / kappa; also called chimeric antibody B3D8
B4: humanized antibody huD1A1-V3 (antibody, human IgG4 S228P, kappa, V domains shown)
VH: EVQLVESGGGLVKPGGSLRLSCAASGFTFRNYAMSWVRQAPGKGLEWVAGISSGGTYTYYPDTVKGRFTISRDNAKNSLYLQMNSLRAEDTAVYYCARRDYGDVYEWYFDVWGKGTTVTVSS
VL: DIQMTQSPSSLSASVGDRVTITCKASQDVRTSIAWYQQKPGKAPKLLIYSASYRYTGVPSRFSGSGSGTDFTFTISSLQPEDIATYYCQQHYSSPWTFGGGTKVEIKR
notes: Human IgG4 / kappa
B5: humanized antibody huD1A1-V6 (antibody, human IgG4 S228P, kappa, V domains shown)
VH: EVQLVESGGGLVKPGGSLRLSCAASGFTFRNYAMSWVRQAPGKGLEWVAGISSGGTYTYYPDTVKGRFTISRDNAKNSLYLQMNSLRAEDTAVYYCARRDYGDVYEWYFDVWGKGTTVTVSS
VL: DIQMTQSPSSLSASVGDRVTITCKASQDVRTSIAWYQQKPGKSPKLLIYSASYRYTGVPSRFSGSGSGTDFTFTISSLQPEDLATYYCQQHYSSPWTFGGGTKVEIKR
notes: Human IgG4 / kappa
B6: humanized antibody huD1A1-V4 (antibody, human IgG4 S228P, kappa, V domains shown)
VH: EVQLVESGGGLVKPGGSLRLSCAASGFTFRNYAMSWVRQAPGKGLEWVAGISSGGTYTYYPDTVKGRFTISRDNARNSLYLQMNSLRAEDTAVYYCARRDYGDVYEWYFDVWGTGTTVTVSS
VL: DIQMTQSPSSLSASVGDRVTITCKASQDVRTSIAWYQQKPGKSPKLLIYSASYRYTGVPSRFSGSGSGTDFTFTISSLQPEDLATYYCQQHYSSPWTFGGGTKVEIKR
notes: Human IgG4 / kappa
B7: humanized antibody huD1A1-V1 (antibody, human IgG4 S228P, kappa, V domains shown)
VH: EVQLVESGGGLVKPGGSLRLSCAASGFTFRNYAMSWVRQAPGKGLEWVAGISSGGTYTYYPDTVKGRFTISRDNARNSLYLQMNSLRAEDTAVYYCARRDYGDVYEWYFDVWGTGTTVTVSS
VL: DIQMTQSPSSLSASVGDRVTITCKASQDVRTSIAWYQQKPGKAPKLLIYSASYRYTGVPSRFSGSGSGTDFTFTISSLQPEDIATYYCQQHYSSPWTFGGGTKVEIKR
notes: Human IgG4 / kappa

How the values were obtained:
[1] = biological target: T1, human RANKL-his protein (prepared …); test: Octet BLI, antibody captured, human RANKL-his in solution
Method: (§1) Briefly, AHC/AMC biosensors (anti-human/anti-mouse IgG Fc capture, ForteBio) were presoaked with 10 mM glycine (pH 1.5) for 3 seconds, and then dipped in a well with running buffer (0.5% w/v BSA in PBST) for 3 seconds, the soaking and dipping steps were repeated for three times. […] A new baseline was run for 180 seconds in another well with HBS-EP⁺. […] Finally, sensors were presoaked with 10 mM glycine (pH 1.5) for 3 seconds, and then dipped in a well with running buffer for 3 seconds, the soaking and dipping steps repeated for three times. The association and dissociation curves were fit to a 1:1 Langmuir binding model using Octet evaluation software.
(§2) Cell supernatants were harvested after six days in shaking flasks, spun down to pellet cells, and then chimeric antibodies were purified from cell supernatants as described above. The purified antibodies were tested in the capture ELISA, competitive ELISA assay and Octet affinity test following the protocols in the foregoing Examples.

[2] = biological target: T2, biotin-labeled human RANKL-Fc protein (prepared in house, SEQ ID NO.: 40) (human, biotin-labeled (sites not given)); test: competitive ELISA: antibody blocks biotin-labeled human RANKL-Fc binding to coated benchmark denosumab
T2 construct: also called RANKL-Fc-biotin

[3] = biological target: T2, biotin-labeled human RANKL-Fc protein …; test: competitive ELISA: antibody blocks biotin-labeled human RANKL-Fc binding to coated human RANK-Fc
[4] = biological target: T2, biotin-labeled human RANKL-Fc protein …; test: capture ELISA: captured antibody, biotin-labeled human RANKL-Fc, OD(450-630)
Method: Plates were washed once with wash buffer (PBS+0.05% v/v Tween-20, PBST) and then blocked with 200 μl/well blocking buffer (5% w/v non-fatty milk in PBST) for 2 hours at 37° C. […] After a final wash, plates were incubated with 100 μl/well ELISA substrate TMB (Innoreagents, Cat #TMB-S-002) at room temperature. The reaction was stopped in 3-10 minutes with 50 μl/well 1M H₂SO₄, and the absorbance of each well was read on a microplate reader using dual wavelengths mode with 450 nm for TMB and 630 nm as the reference wavelength. The OD (450-630) values were plotted against antibody concentration. Data were analyzed using Graphpad Prism software and EC₅₀ values were reported.
as §2

[5] = biological target: T1, human RANKL-his protein (prepared …); test: Octet BLI, antibody from cell supernatant captured, human RANKL-his in solution
Method: as §1
The chimeric antibody when tested was in HBS-EP⁺ at 5 μg/ml concentration.

Row | Binder | Kd [1] [nM] | IC50 [2] [nM] | IC50 [3] [nM] | EC50 [4] [nM] | Kd [5] [nM] | koff [5] [s⁻¹] | kon [5] [M⁻¹ s⁻¹]
1 | B1 | 0.612 | 0.258 | 0.0505 | 0.183 | – | – | –
2 | B2 | 1.62 | 4.4 | 0.905 | 2 | – | – | –
3 | B3 | 2.65 | 16.8 | 3.17 | 3.17 | – | – | –
4 | B4 | – | – | – | – | < 0.001 | < 1e-07 | 106000
5 | B5 | – | – | – | – | < 0.001 | < 1e-07 | 115000
6 | B6 | – | – | – | – | < 0.001 | < 1e-07 | 101000
7 | B7 | – | – | – | – | < 0.001 | < 1e-07 | 124000
